These substances were tested against human GLP-1 receptor (human) (UniProt P43220) (assay: cell-based or functional assay).
Chain of human GLP-1 receptor (human) (P43220 24-463): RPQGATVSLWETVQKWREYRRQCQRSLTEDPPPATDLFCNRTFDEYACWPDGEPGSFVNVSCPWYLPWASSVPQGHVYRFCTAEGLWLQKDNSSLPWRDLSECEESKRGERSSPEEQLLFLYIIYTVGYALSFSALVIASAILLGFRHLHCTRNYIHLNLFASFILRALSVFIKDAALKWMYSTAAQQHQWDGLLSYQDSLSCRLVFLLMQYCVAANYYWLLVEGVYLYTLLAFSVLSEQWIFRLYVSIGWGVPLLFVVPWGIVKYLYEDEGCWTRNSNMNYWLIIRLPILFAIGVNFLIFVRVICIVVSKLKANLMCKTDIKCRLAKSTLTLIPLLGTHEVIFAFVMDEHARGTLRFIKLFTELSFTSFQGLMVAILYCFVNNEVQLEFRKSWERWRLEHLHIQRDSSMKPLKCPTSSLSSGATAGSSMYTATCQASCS

Chain of Gly^8-Glu^22-Gly^36-GLP-1(7-37)-2L-IgG4(S228P, F234A, L235A) (Fc fusion) (main): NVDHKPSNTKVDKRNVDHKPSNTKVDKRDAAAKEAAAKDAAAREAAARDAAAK
Chain of Gly^8-Glu^22-GLP-1(7-37)-1.5L-IgG4(S228P, F234A, L235A) (Fc fusion) (main): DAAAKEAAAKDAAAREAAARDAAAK

Substance	Activity (from EC50, relative to Val^8-GLP-1(7-37)OH); CRE-BLAM (beta-lactamase) reporter in HEK-293 cells expressing the human GLP-1 receptor	Activity (from EC50, relative to Val^8-GLP-1(7-37)OH, corrected for the 2-fold molarity of dimers); CRE-Luciferase reporter in HEK-293 cells stably expressing the human GLP-1 receptor
Gly^8-Glu^22-GLP-1(7-37)-1.5L-IgG4(S228P, F234A, L235A) (Fc fusion)	314%	595%
Gly^8-Glu^22-GLP-1(7-37)-1L-IgG4(S228P, F234A, L235A) (Fc fusion)	468%	1120%
Gly^8-Glu^22-Gly^36-GLP-1(7-37)-2L-IgG4(S228P, F234A, L235A) (Fc fusion)	441%	398%

Other lines, results leading:

Activity (from EC50, relative to Val^8-GLP-1(7-37)OH); CRE-BLAM (beta-lactamase) reporter in HEK-293 cells expressing the human GLP-1 receptor	Activity (from EC50, relative to Val^8-GLP-1(7-37)OH, corrected for the 2-fold molarity of dimers); CRE-Luciferase reporter in HEK-293 cells stably expressing the human GLP-1 receptor	Substance
301%	535%	Gly^8-Glu^22-GLP-1(7-37)-2L-IgG4(S228P, F234A, L235A) (Fc fusion)
	417%	Gly^8-Glu^22-Gly^36-GLP-1(7-37)-1L-IgG4(S228P, F234A, L235A) (Fc fusion)
